Our source for the Kd values is doi:10.1101/2023.09.25.559264.

Like-named read-outs stand apart in the source and are kept apart here.

Usually Kd stands for a measure of binding affinity in units of concentration. A high value points to weaker binding.

Holding throughout (test): MST
Series [1] concerns the target T1, WtIHF (wild-type integration host factor) (E. coli, UniProt P0A6X7;P0A6Y1 1-99;1-94).
Series [2] concerns the target T1, WtIHF (wild-type integration host …). The source holds these as a separate data set.
For series [3] the target is unchanged. This is another data set of the same source.

T1 sequence (P0A6X7 whole entry, chain 1 of 2): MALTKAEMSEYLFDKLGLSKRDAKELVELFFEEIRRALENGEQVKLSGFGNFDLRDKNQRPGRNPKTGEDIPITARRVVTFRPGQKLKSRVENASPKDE
T1 sequence (P0A6Y1 whole entry, chain 2 of 2): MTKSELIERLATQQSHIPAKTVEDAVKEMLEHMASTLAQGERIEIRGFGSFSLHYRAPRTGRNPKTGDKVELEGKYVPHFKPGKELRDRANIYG

B1: H'-HJ (structured_DNA)
DNA 1: CCAGACAGCAGTTATCAATTTGTTGGGACGGAGG
DNA 2: CCTTCAACCACCGCTCATGATTACTGCTGTCTGG
DNA 3: CCTCCGTCCCAACAAATGGCTGCTACCGGAAGGG
DNA 4: AAAAACCCTTCCGGTAGCAGCCTGAGCGGTGGTTGAAGG
As for B1, the Kd was 12 ± 0.89 nM in series [1], 2.8 ± 0.5 nM in series [2] and 13.6 ± 2.21 nM in series [3].

B2: H1-HJ (structured_DNA)
DNA 1: CCAGACAGCAGTAATCAACTACTTAGGACGGAGG
DNA 2: CCTTCAACCACCGCTCATGATTACTGCTGTCTGG
DNA 3: CCTCCGTCCTAAGTAGTGGCTGCTACCGGAAGGG
DNA 4: AAAAACCCTTCCGGTAGCAGCCTGAGCGGTGGTTGAAGG
For the molecule B2, the Kd was 7.75 ± 1.1 nM in series [1], 11 ± 1.6 nM in series [2] and 7.09 ± 0.93 nM in series [3].
